These results are taken from paper PMC8498191, “Structural and Mechanistic Insights Into Dimethylsulfoxide Formation Through Dimethylsulfide Oxidation” (Frontiers in Microbiology, 2021).

B1: Tmm7211 (Candidatus Pelagibacter sp. HTCC7211; D314A) (protein)
chain: MSKVAIIGAGPCGLSILRAFEHLEKKGEKIPEIVCFEKQESWGGLWNYNWRTGSDQYGDPVPNSMYRYLWSNGPKECLEFADYSFDQHFGKSIPSFPPREVLQDYILGRVSKGNIKNKIKFNTRVINTVYRNDKFEINYQDKVNDKTLSDTFDYLVVSTGHFSVPFIPEYEGMSSFPGRIMHSHDFRDAEEFRGKNVIVLGSSYSAEDVALQCNKYGAKSVTIGYRHNPMGFKWPKGMKEVHYLDKLDGKKAIFKDGTEQDADVVILCTGYLHHFPFLDESLKLKTHNRLYPPKLYKGVVWQDNHKLLYLGMQAQFHTFNMFDCQAWFARDVIMDKIKMPSDDEIDKDINKWVSMEEKLENPDQMIDFQTEYTKELHNISDYPKIDFELIRKHFKEWEHHKVEDILTYRNKSFSSPVTGSVAPVHHTPWEKAMDDSMKTFLNKR
notes: full-length synthesized gene (1335 bp, 444 residues, 52 kDa), N-terminal His tag (pET28a), E. coli BL21(DE3); Ni-NTA and Superdex-200
B2: Tmm7211 (Candidatus Pelagibacter sp. HTCC7211; R409A) (protein)
chain: MSKVAIIGAGPCGLSILRAFEHLEKKGEKIPEIVCFEKQESWGGLWNYNWRTGSDQYGDPVPNSMYRYLWSNGPKECLEFADYSFDQHFGKSIPSFPPREVLQDYILGRVSKGNIKNKIKFNTRVINTVYRNDKFEINYQDKVNDKTLSDTFDYLVVSTGHFSVPFIPEYEGMSSFPGRIMHSHDFRDAEEFRGKNVIVLGSSYSAEDVALQCNKYGAKSVTIGYRHNPMGFKWPKGMKEVHYLDKLDGKKAIFKDGTEQDADVVILCTGYLHHFPFLDESLKLKTHNRLYPPKLYKGVVWQDNHKLLYLGMQDQFHTFNMFDCQAWFARDVIMDKIKMPSDDEIDKDINKWVSMEEKLENPDQMIDFQTEYTKELHNISDYPKIDFELIRKHFKEWEHHKVEDILTYANKSFSSPVTGSVAPVHHTPWEKAMDDSMKTFLNKR
notes: as for B1
B3: Tmm7211 (Candidatus Pelagibacter sp. HTCC7211; S203A) (protein)
chain: MSKVAIIGAGPCGLSILRAFEHLEKKGEKIPEIVCFEKQESWGGLWNYNWRTGSDQYGDPVPNSMYRYLWSNGPKECLEFADYSFDQHFGKSIPSFPPREVLQDYILGRVSKGNIKNKIKFNTRVINTVYRNDKFEINYQDKVNDKTLSDTFDYLVVSTGHFSVPFIPEYEGMSSFPGRIMHSHDFRDAEEFRGKNVIVLGSAYSAEDVALQCNKYGAKSVTIGYRHNPMGFKWPKGMKEVHYLDKLDGKKAIFKDGTEQDADVVILCTGYLHHFPFLDESLKLKTHNRLYPPKLYKGVVWQDNHKLLYLGMQDQFHTFNMFDCQAWFARDVIMDKIKMPSDDEIDKDINKWVSMEEKLENPDQMIDFQTEYTKELHNISDYPKIDFELIRKHFKEWEHHKVEDILTYRNKSFSSPVTGSVAPVHHTPWEKAMDDSMKTFLNKR
notes: as for B1
B4: Tmm7211 (Candidatus Pelagibacter sp. HTCC7211; D314E) (protein)
chain: MSKVAIIGAGPCGLSILRAFEHLEKKGEKIPEIVCFEKQESWGGLWNYNWRTGSDQYGDPVPNSMYRYLWSNGPKECLEFADYSFDQHFGKSIPSFPPREVLQDYILGRVSKGNIKNKIKFNTRVINTVYRNDKFEINYQDKVNDKTLSDTFDYLVVSTGHFSVPFIPEYEGMSSFPGRIMHSHDFRDAEEFRGKNVIVLGSSYSAEDVALQCNKYGAKSVTIGYRHNPMGFKWPKGMKEVHYLDKLDGKKAIFKDGTEQDADVVILCTGYLHHFPFLDESLKLKTHNRLYPPKLYKGVVWQDNHKLLYLGMQEQFHTFNMFDCQAWFARDVIMDKIKMPSDDEIDKDINKWVSMEEKLENPDQMIDFQTEYTKELHNISDYPKIDFELIRKHFKEWEHHKVEDILTYRNKSFSSPVTGSVAPVHHTPWEKAMDDSMKTFLNKR
notes: as for B1
B5: Tmm7211 (Candidatus Pelagibacter sp. HTCC7211; N72A) (protein)
chain: MSKVAIIGAGPCGLSILRAFEHLEKKGEKIPEIVCFEKQESWGGLWNYNWRTGSDQYGDPVPNSMYRYLWSAGPKECLEFADYSFDQHFGKSIPSFPPREVLQDYILGRVSKGNIKNKIKFNTRVINTVYRNDKFEINYQDKVNDKTLSDTFDYLVVSTGHFSVPFIPEYEGMSSFPGRIMHSHDFRDAEEFRGKNVIVLGSSYSAEDVALQCNKYGAKSVTIGYRHNPMGFKWPKGMKEVHYLDKLDGKKAIFKDGTEQDADVVILCTGYLHHFPFLDESLKLKTHNRLYPPKLYKGVVWQDNHKLLYLGMQDQFHTFNMFDCQAWFARDVIMDKIKMPSDDEIDKDINKWVSMEEKLENPDQMIDFQTEYTKELHNISDYPKIDFELIRKHFKEWEHHKVEDILTYRNKSFSSPVTGSVAPVHHTPWEKAMDDSMKTFLNKR
notes: as for B1
B6: Tmm7211 (Candidatus Pelagibacter sp. HTCC7211; N288A) (protein)
chain: MSKVAIIGAGPCGLSILRAFEHLEKKGEKIPEIVCFEKQESWGGLWNYNWRTGSDQYGDPVPNSMYRYLWSNGPKECLEFADYSFDQHFGKSIPSFPPREVLQDYILGRVSKGNIKNKIKFNTRVINTVYRNDKFEINYQDKVNDKTLSDTFDYLVVSTGHFSVPFIPEYEGMSSFPGRIMHSHDFRDAEEFRGKNVIVLGSSYSAEDVALQCNKYGAKSVTIGYRHNPMGFKWPKGMKEVHYLDKLDGKKAIFKDGTEQDADVVILCTGYLHHFPFLDESLKLKTHARLYPPKLYKGVVWQDNHKLLYLGMQDQFHTFNMFDCQAWFARDVIMDKIKMPSDDEIDKDINKWVSMEEKLENPDQMIDFQTEYTKELHNISDYPKIDFELIRKHFKEWEHHKVEDILTYRNKSFSSPVTGSVAPVHHTPWEKAMDDSMKTFLNKR
notes: as for B1
B7: Tmm7211 (Candidatus Pelagibacter sp. HTCC7211; H227A) (protein)
chain: MSKVAIIGAGPCGLSILRAFEHLEKKGEKIPEIVCFEKQESWGGLWNYNWRTGSDQYGDPVPNSMYRYLWSNGPKECLEFADYSFDQHFGKSIPSFPPREVLQDYILGRVSKGNIKNKIKFNTRVINTVYRNDKFEINYQDKVNDKTLSDTFDYLVVSTGHFSVPFIPEYEGMSSFPGRIMHSHDFRDAEEFRGKNVIVLGSSYSAEDVALQCNKYGAKSVTIGYRANPMGFKWPKGMKEVHYLDKLDGKKAIFKDGTEQDADVVILCTGYLHHFPFLDESLKLKTHNRLYPPKLYKGVVWQDNHKLLYLGMQDQFHTFNMFDCQAWFARDVIMDKIKMPSDDEIDKDINKWVSMEEKLENPDQMIDFQTEYTKELHNISDYPKIDFELIRKHFKEWEHHKVEDILTYRNKSFSSPVTGSVAPVHHTPWEKAMDDSMKTFLNKR
notes: as for B1
B8: Tmm7211 (Candidatus Pelagibacter sp. HTCC7211; R226A) (protein)
chain: MSKVAIIGAGPCGLSILRAFEHLEKKGEKIPEIVCFEKQESWGGLWNYNWRTGSDQYGDPVPNSMYRYLWSNGPKECLEFADYSFDQHFGKSIPSFPPREVLQDYILGRVSKGNIKNKIKFNTRVINTVYRNDKFEINYQDKVNDKTLSDTFDYLVVSTGHFSVPFIPEYEGMSSFPGRIMHSHDFRDAEEFRGKNVIVLGSSYSAEDVALQCNKYGAKSVTIGYAHNPMGFKWPKGMKEVHYLDKLDGKKAIFKDGTEQDADVVILCTGYLHHFPFLDESLKLKTHNRLYPPKLYKGVVWQDNHKLLYLGMQDQFHTFNMFDCQAWFARDVIMDKIKMPSDDEIDKDINKWVSMEEKLENPDQMIDFQTEYTKELHNISDYPKIDFELIRKHFKEWEHHKVEDILTYRNKSFSSPVTGSVAPVHHTPWEKAMDDSMKTFLNKR
notes: as for B1

The first series deals with T1, Tmm7211 (Candidatus Pelagibacter sp. HTCC7211, UniProt B6BQB2).
T1 construct: gene tmm; full-length synthesized gene (1335 bp, 444 residues, 52 kDa), N-terminal His tag (pET28a), E. coli BL21(DE3); Ni-NTA and Superdex-200
T1 sequence (B6BQB2 1-444): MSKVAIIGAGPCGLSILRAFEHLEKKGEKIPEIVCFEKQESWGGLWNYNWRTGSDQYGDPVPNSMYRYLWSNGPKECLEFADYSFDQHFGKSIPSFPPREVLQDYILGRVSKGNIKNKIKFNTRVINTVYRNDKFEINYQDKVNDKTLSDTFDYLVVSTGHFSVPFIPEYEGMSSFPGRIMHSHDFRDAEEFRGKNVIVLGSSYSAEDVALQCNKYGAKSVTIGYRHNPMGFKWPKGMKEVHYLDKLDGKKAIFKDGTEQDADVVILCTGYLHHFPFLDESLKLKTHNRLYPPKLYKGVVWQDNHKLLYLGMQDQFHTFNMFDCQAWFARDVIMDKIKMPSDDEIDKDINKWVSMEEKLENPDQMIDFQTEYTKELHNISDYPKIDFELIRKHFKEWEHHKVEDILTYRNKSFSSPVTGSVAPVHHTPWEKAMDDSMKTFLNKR
Nature of the series: X-ray crystal structure, […] Å. The series is classed as binding. Particulars: FAD bound during expression in E. coli.
On to `Cc1cc2nc3c(=O)[nH]c(=O)nc-3n(C[C@H](O)[C@H](O)[C@H](O)COP(=O)(O)OP(=O)(O)OC[C@H]3O[C@@H](n4cnc5c(N)ncnc54)[C@H](O)[C@@H]3O)c2cc1C` [FAD], for which the “X-ray crystal structure, 1.8 Å” value is “the NADP^+ and FAD molecules can be clearly observed in the structure”.

The series is the same for the next values; noted with them: crystallised with 5 mM NADPH.
Consider `NC(=O)c1ccc[n+]([C@@H]2O[C@H](COP(=O)(O)OP(=O)(O)OC[C@H]3O[C@@H](n4cnc5c(N)ncnc54)[C@H](OP(=O)(O)O)[C@@H]3O)[C@@H](O)[C@H]2O)c1` [NADP^+], for which the “X-ray crystal structure, 1.8 Å” value is “the NADP^+ and FAD molecules can be clearly observed in the structure”.

Substrate in another series: NC(=O)C1=CN([C@@H]2O[C@H](COP(=O)(O)OP(=O)(O)OC[C@H]3O[C@@H](n4cnc5c(N)ncnc54)[C@H](OP(=O)(O)O)[C@@H]3O)[C@@H](O)[C@H]2O)C=CC1
Briefly: purified protein. The format is biochemical, Candidatus Pelagibacter sp. HTCC7211. Particulars: 1 mM DMS, 1.5 μM enzyme.
For B1, the Km (usually the concentration of substrate that gives half-maximal velocity) worked out at 32.0 ± 0.6 µM; the kcat (commonly the number of substrate molecules converted per active site and unit of time at saturation) worked out at 0.035 ± 0.00167 s⁻¹.

As to B2, the Michaelis constant (Km) was 44.9 ± 5.6 µM and the kcat came out at 0.045 ± 0.00167 s⁻¹.

Consider B3, for which the Km stood at 134.8 ± 11.1 µM and the catalytic constant (kcat) came out at 0.0167 ± 0.00167 s⁻¹.

Take B4: the Michaelis constant (Km) was 9.7 ± 0.5 µM and the kcat was 0.0867 ± 0.00333 s⁻¹.

Consider B5, for which the Km was determined as 34.1 ± 1.0 µM and the turnover number (kcat) is 0.0317 ± 0.00333 s⁻¹.

Turning to B6, the Michaelis-Menten constant (Km) is 61.1 ± 4.0 µM and the turnover number (kcat) was 0.0217 ± 0.00167 s⁻¹.

On to B7, for which the Km is 41.2 ± 2.3 µM and the catalytic constant (kcat) was determined as 0.0417 ± 0.00333 s⁻¹.

Turning to B8, the Km came to 101.8 ± 8.6 µM and the kcat came to 0.015 ± 0.00167 s⁻¹.
